Paper PMC9931213, “Structural basis for ATG9A recruitment to the ULK1 complex in mitophagy initiation” (Science Advances, 2023)

T1: MBP-ATG9A (full-length autophagy-related protein 9A) (human, UniProt Q7Z3C6 1-839)
T1 construct: In detergent (DDM/CHS) micelles; also called wild-type MBP-ATG9A; ATG9A wild type (WT); source: HEK GnTi- cells, transfected; not shown: MBP, N-terminal, kept
T1 sequence (looked up): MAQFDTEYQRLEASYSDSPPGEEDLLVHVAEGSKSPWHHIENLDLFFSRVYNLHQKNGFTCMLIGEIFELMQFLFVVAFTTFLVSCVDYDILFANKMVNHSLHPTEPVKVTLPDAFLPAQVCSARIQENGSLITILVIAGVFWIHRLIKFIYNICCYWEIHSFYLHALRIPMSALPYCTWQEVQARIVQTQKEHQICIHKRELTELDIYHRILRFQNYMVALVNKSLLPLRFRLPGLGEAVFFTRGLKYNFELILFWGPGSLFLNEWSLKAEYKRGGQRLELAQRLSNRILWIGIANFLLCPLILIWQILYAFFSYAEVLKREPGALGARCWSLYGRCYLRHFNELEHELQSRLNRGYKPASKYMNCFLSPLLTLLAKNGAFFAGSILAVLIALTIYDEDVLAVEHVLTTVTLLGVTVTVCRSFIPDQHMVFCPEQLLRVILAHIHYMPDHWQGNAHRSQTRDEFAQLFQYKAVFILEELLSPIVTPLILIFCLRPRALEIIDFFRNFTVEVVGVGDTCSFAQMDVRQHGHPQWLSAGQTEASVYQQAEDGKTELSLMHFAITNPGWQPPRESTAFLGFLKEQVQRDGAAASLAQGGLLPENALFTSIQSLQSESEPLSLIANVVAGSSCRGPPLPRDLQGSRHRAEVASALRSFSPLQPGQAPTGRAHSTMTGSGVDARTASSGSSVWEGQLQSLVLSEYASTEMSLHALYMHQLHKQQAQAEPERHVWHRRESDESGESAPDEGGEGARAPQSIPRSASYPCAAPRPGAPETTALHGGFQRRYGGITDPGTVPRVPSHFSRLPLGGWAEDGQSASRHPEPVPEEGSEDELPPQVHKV

T2: ATG101 (1–198) as in the crystallised fusion (human, UniProt Q9BSB4 1-198)
T2 construct: ATG101, human, residues 1-198; written on its own for the pairs that touch; also called ATG101 HORMA domain; source: HEK 293GnTi cells, as the C-terminal part of the fusion m32
T2 sequence (looked up): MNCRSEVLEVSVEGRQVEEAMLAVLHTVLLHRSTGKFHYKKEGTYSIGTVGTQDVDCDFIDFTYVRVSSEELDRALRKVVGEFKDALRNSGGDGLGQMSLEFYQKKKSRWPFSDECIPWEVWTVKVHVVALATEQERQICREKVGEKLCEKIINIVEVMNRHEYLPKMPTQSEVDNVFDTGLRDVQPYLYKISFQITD

B1: ATG9A HDIR (828–839)–GSDEA–ATG101 (1–198) fusion construct (other, human)
chain: SEDELPPQVHKVGSDEAMNCRSEVLEVSVEGRQVEEAMLAVLHTVLLHRSTGKFHYKKEGTYSIGTVGTQDVDCDFIDFTYVRVSSEELDRALRKVVGEFKDALRNSGGDGLGQMSLEFYQKKKSRWPFSDECIPWEVWTVKVHVVALATEQERQICREKVGEKLCEKIINIVEVMNRHEYLPKMPTQSEVDNVFDTGLRDVQPYLYKISFQITD
notes: flexible linker of five residues; ATG101, human, residues 1-198; also called ATG9A HDIR-ATG101 fusion construct; not shown: GST, N-terminal, cleaved
B2: MBP-ATG9A (692–839), monomeric (domain or fragment, human, UniProt Q7Z3C6 692-839, looked up)
chain: QLQSLVLSEYASTEMSLHALYMHQLHKQQAQAEPERHVWHRRESDESGESAPDEGGEGARAPQSIPRSASYPCAAPRPGAPETTALHGGFQRRYGGITDPGTVPRVPSHFSRLPLGGWAEDGQSASRHPEPVPEEGSEDELPPQVHKV
notes: source: HEK GnTi- cells, transfected, purified (amylose resin, Superose 6); not shown: MBP, N-terminal, kept
B3: ATG13^HORMA (1–197):TwinStrep-Flag (TSF)–ATG101 complex (complex, human)
chain 1: METDLNSQDRKDLDKFIKFFALKTVQVIVQARLGEKICTRSSSSPTGSDWFNLAIKDIPEVTHEAKKALAGQLPAVGRSMCVEISLKTSEGDSMELEIWCLEMNEKCDKEIKVSYTVYNRLSLLLKSLLAITRVTPAYRLSRKQGHEYVILYRIYFGEVQLSGLGEGFQTVRVGTVGTPVGTITLSCAYRINLAFMS
chain 2: MNCRSEVLEVSVEGRQVEEAMLAVLHTVLLHRSTGKFHYKKEGTYSIGTVGTQDVDCDFIDFTYVRVSSEELDRALRKVVGEFKDALRNSGGDGLGQMSLEFYQKKKSRWPFSDECIPWEVWTVKVHVVALATEQERQICREKVGEKLCEKIINIVEVMNRHEYLPKMPTQSEVDNVFDTGLRDVQPYLYKISFQITDALGTSVTTTMRRLIKDTLAL
notes: ATG101, human; Heterodimer of two HORMA domains formed beforehand by co-expression; also called ATG13^HORMA:ATG101; source: HEK GnTi- cells, transfected, purified (Strep-Tactin resin, Superdex 200); not shown: TwinStrep-Flag (TSF), N-terminal, kept
B4: ATG13^HORMA (1–197), no tag (domain or fragment, human, UniProt O75143 1-197, looked up)
chain: B3 chain 1

How the values were obtained:
Details in all cases: both partners purified
[1] = molecular target: B4; assay: crystal structure; ATG9 HDIR (828–839)–fused ATG101 (1–198):ATG13 (1–197) complex, 6 mg/ml; sitting drop, 288 K, 0.1 M Hepes pH 7.5, 0.2 M NaCl, 12% PEG8000; 2.4 Å
[2] = molecular target: B3; assay: pull-down; recombinant MBP-ATG9A constructs (1.2 μM) on amylose resin with TSF-ATG101:ATG13 (1–197) complex (3 μM), 4°C overnight, ITC buffer (25 mM Hepes pH 7.5, 150 mM NaCl, 1 mM MgCl2, 1 mM TCEP); full-length MBP-ATG9A in DDM/CHS micelles (0.05% DDM/CHS); SDS-PAGE
[3] = molecular target: T1, MBP-ATG9A (full-length …); assay: as above
[4] = molecular target: T2, ATG101 (1–198) as in the crystallised …; assay: crystal structure; ATG9 HDIR (828–839)–fused ATG101 (1–198):ATG13 (1–197) complex, 6 mg/ml; sitting drop, 288 K, 0.1 M Hepes pH 7.5, 0.2 M NaCl, 12% PEG8000; 2.4 Å

Binder: B1
binding result [1]: binds

Binder: B2
binding result [2]: binds

Binder: B3
binding result [3]: binds

Binder: B4
binding result [4]: binds
